From publication doi:10.1101/2021.11.04.467292

Columns and labels:
[1] = molecular target: KLIF motor domain lacking the N-terminal extension fused to GFP (Trypanosoma brucei); assay: gliding filament motility assay
[2] = molecular target: microtubules polymerised from bovine tubulin, paclitaxel-stabilised (bovine) (UniProt Q6B856); assay: two-MT assay
[3] = molecular target: microtubules polymerised from bovine tubulin, paclitaxel-stabilised (bovine) (UniProt Q6B856); assay: TIRF microscopy of Qdot-bound motor on immobilised microtubules

microtubules polymerised from bovine tubulin, paclitaxel-stabilised (from UniProt Q6B856 1-445) (complex)
percent of filaments dissociated within 2.5 minutes [1]: > 50%

KLIF motor domain construct (amino acids 1-672) fused to a C-terminal GFP (mClover3) tag (domain or fragment)
half-life of plus end to plus end tethering of two MTs by KLIF [2]: 1.7 min

KLIF motor domain construct (amino acids 1-672) fused to a C-terminal biotin tag (domain or fragment)
half-life of association with MTs [3]: > 5 min
